Data from patent US11708418.

How the values were obtained:
[1] = target: Daratumumab (Darzalex; lot GHS0901, Janssen, USA); experiment: anti-CD38 (DARATUMUMAB) inhibition IAT, ability to titrate the antibody, CD38ecd-Fc-10H as reference
[2] = target: Daratumumab (Darzalex; lot GHS0901, Janssen, USA); experiment: IAT inhibition; 25 µl Darzalex dilution with 2 µl of 8.5 mg/ml protein

Sequence of CD38ecd-flex-Fc-10H (P28907 45-300): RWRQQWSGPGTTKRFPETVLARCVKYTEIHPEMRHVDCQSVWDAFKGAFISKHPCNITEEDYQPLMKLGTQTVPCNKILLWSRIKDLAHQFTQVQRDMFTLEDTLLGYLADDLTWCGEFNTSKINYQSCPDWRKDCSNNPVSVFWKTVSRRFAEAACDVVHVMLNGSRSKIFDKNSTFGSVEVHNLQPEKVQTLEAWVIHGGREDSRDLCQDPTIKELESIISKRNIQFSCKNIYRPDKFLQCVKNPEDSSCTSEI
Sequence of CD38ecd-Fc (P28907 45-300 limits assumed): as the sequence (P28907 45-300) above

Which Functionality [1] does the source give for “CD38ecd-Fc (from UniProt P28907 45-300) (Fc fusion)” here?
The Functionality was 50%.

What does the source list for “CD38ecd-flex-Fc-10H (from UniProt P28907 45-300) (Fc fusion)”?
anti-CD38 concentration completely inhibited [2]: 0.125 mg/mL; Functionality [1]: 100%
